Data from patent publication US20040161746A1 (published 2004).

T1: B1153 protein (human, UniProt Q96JG6 1-964)
T1 construct: also called indicator protein
T1 sequence: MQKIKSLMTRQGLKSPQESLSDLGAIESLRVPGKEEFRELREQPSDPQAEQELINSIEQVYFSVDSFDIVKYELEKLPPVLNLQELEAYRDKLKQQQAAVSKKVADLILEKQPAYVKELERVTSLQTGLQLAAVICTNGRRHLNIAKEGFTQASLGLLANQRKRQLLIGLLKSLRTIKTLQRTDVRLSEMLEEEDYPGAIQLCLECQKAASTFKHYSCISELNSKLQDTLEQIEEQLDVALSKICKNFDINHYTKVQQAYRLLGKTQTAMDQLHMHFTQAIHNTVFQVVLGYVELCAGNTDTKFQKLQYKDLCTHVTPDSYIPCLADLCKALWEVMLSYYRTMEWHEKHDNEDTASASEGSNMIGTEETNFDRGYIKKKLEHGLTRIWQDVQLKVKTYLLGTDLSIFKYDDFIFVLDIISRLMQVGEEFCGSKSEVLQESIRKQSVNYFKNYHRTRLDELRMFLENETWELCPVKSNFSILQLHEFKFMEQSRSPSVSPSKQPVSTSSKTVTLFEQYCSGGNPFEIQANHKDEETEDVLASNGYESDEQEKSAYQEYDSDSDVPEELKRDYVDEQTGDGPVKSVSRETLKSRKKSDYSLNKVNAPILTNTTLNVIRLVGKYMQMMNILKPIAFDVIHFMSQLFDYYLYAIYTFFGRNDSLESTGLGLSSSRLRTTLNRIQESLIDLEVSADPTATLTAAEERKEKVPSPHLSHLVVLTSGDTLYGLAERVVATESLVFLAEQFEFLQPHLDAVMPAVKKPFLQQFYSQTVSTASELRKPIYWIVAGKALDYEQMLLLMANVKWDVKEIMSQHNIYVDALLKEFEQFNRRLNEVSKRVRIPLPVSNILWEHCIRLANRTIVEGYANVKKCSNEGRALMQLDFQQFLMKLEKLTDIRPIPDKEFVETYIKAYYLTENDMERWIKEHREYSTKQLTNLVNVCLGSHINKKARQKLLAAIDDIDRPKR

B1: myosin binding subunit 85 partial sequence, Prey-No. 3 (590 aa to 782 aa) (other, human, UniProt Q9BZL4 590-782, looked up)
chain: PSRRPRVPGVENSDSPAQRAEAPDGQGPGPQAAREHRKVGKEWRGPAEGEEAEPADRSQESSTLEGGPSARRQRWQRDLNPEPEPESEEPDGGFRTLYAELRRENERLREALTETTLRLAQLKVELERATQRQERFAERPALLELERFERRALERKAAELEEELKALSDLRADNQRLKDENAALIRVISKLSK
notes: range 590-782; Prey clone from a Human Brain cDNA library in the yeast two-hybrid system
B2: myosin binding subunit 85 partial sequence, Prey-No. 4 (590 aa to 782 aa) (other, human, UniProt Q9BZL4 590-782, looked up)
chain: B1 chain
notes: range 590-782; Prey clone from a Human Brain cDNA library; It has the same amino acid range as Prey-No. 3 and differs only in 3'-UTR length; The prey fusion domain is not described
B3: myosin binding subunit 85 partial sequence, Prey-No. 11 (656 aa to 782 aa) (other, human, UniProt Q9BZL4 656-782, looked up)
chain: GPSARRQRWQRDLNPEPEPESEEPDGGFRTLYAELRRENERLREALTETTLRLAQLKVELERATQRQERFAERPALLELERFERRALERKAAELEEELKALSDLRADNQRLKDENAALIRVISKLSK
notes: range 656-782; Prey clone from a Human Brain cDNA library; The prey fusion domain is not described

What follows are binders tested against T1, B1153 protein (assay: yeast two-hybrid (PROQUEST, GAL4), B1153 full-length ORF as bait, Human Brain cDNA library prey).
Method: By the PROQUEST™ TWO-Hybrid system (Invitrogen) utilizing the in vivo gene expression system of GAL4 series yeast, a search for a protein that interacts with the protein of this invention was carried out. Screening for a protein that interacts with B1153 was conducted for the Human Brain cDNA library with the full-length ORF region (86 bp to 2977 bp) of the B1153 gene as a bait. In this case, protocol according to the manual attached to the system was used.

| binding result | Binder |
| --- | --- |
| binds | B1 |
| binds | B2 |
| binds | B3 |
